Assay results reported in the nanobody polyreactivity screen of Harvey et al. (2022).

experiment: yeast display, Sf9 membrane polyspecificity reagent, FACS + sequencing; frameworks hold sequencing errors
Method in brief: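 Galactose-induced (36–48 hours) yeast carrying a synthetic nanobody display library were exposed to 10% biotinylated, detergent-solubilized Sf9 membrane reagent at 4 °C for 1 hour. FACS followed streptavidin microbead enrichment, using low and high (top ~1%) gates for expression (anti-HA) and reagent binding (streptavidin). Colony PCR, MiSeq 2 × 250 sequencing and CDR-length filtering followed. Labels for polyreactivity reflect the gate of origin.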

Sequence | polyreactivity (PSR sort gate)
QVQLVESGGGLFQAGGSLRVSCAASGRTFVNYAMGWYRQAAGKERELVAAISTSGGSTYYADSVKGRFTISRDNAKNTDYYQRNSLKPEDTAVYYCKKVRYLAVNLGQFTFDYWGQGTQGTVSS | low polyreactivity
QVQLVESGGGLFQAGGSLSLRCAASGSIFEVNALGWDRQGPGKERELVAAISQRGTRTYYADSVKGRFTMSRDYAKNTVYLQMNILKPEDTAVYYCNRGGWRQYDSWGQGTQVTVST | high polyreactivity
QVQLVESGGGLFQAGRSLPLSCAASGIIFTQYPMGWYRQAPGKERELVAAISGSGGRTYYADSVKGRFSISRDNEKNTVYLQMKILKPEDTAVYYCAARYARYGNDYWGQCTQVTVSS | high polyreactivity
QVQLVESGGGLFQAGRSLRLICAASGRIFNQYPMGWSRQAPGKETELVAAIRRSSDSTYYADSVKGRFTISRDNAKNTVYLQMNSLTPEDSAVYYCATDGYRRWVWMEYWGQGTQVTVSS | low polyreactivity
QVQLVESGGGLFQARGSLRLSCAASGRTFWYYTMGWYRPAPGKERELVASITYRGGSTYYADSVKGRFTISRDNAKITVYLQMNSLKREDTALYYCYARYKRYSYDYWGQGTQVTVSS | high polyreactivity
QVQLVESGGGLFQEGGSLRLSCAASGRTLRYYAMGWYRQAPGKVRELVAAISSGGTTNYADSVKGRFTISRDNAKNTVYFQMKSLKPEDTAVYYFAASYRRFRFSHYDYWGQVTQVTVSS | high polyreactivity
QVQLVESGGGLFQEGGSLRLSCAASGSIFEPYVMGWYRQAPGKESELVAAIRQTGGSTYYADSVKGRFTISRDNAKNTVYLQMNSLKPEDTAVYYCNAEQNPSGLYDYRGVEGEMGYWGQGTQVTVSS | low polyreactivity
QVQLVESGGGLGHAGGSLRLSCAASGFTYTAYAMGWYRQAPGKERELVPSISKSDGSTYYADSVKGRFTISRDNAKNTVYLQMKSVKPEDTAVYYCATGRISRDFHRVQDLGYDYWGQGTQVNVSS | low polyreactivity
QVQLVESGGGLGQAGGSLRLRCAASGSTFQYYAMGWYRQAPGKERELVAAITHSGTRTYYADSVKGRFTISRDNAKNTVYLQMNSLKPVDTAVYYCAARGYGKYDYWGQGTQVTVSS | high polyreactivity
QVQLVESGGGLGQAGGSLRLSCAASGFTFGNYAMGWYRQAPGKERELVAVISYSTGSTNYADSVKGRFTISRDNAKNTVYLQMNSLKPEDTAVYYCAKRYRSYYQGYGYWGQGTQVTVSS | high polyreactivity
QVQLVESGGGLGQAGGSLRLSCAASGFTFYAYVMGWYRQAPGKESELVAAISGSGSSTYYADSVKGRFTISRDNAKNTVDLEMNSLKPEDTAVYYCGAPQLYQYGGFGYWGQGTQVTVSS | high polyreactivity
QVQLVESGGGLGQAGGSLRLSCAASGRIFDVYAMGWYRQAPGKERELVATISSSGGATYYADSVKGRFTISRDNAKYTVYLQMNSLKPEDTAVYYCATTYRPTFRRHYNYWGQGTQVTVSS | low polyreactivity
QVQLVESGGGLGQAGGSLRLSCAASGRIFDYYAMGWYRQAPGKERELVATITSGSRTYYADSVKGRFTISRDNAKNTVYLQMNSLNPEDTAVYSCAAVKRSYYKGEYNAYDYWGQGTQVTVSS | high polyreactivity
QVQLVESGGGLGQAGGSLRLSCAASGRIFRDYAMGWYRQAPGKERQLVAAISWSGGSSYYADSVKGRFTISRDNAKNTVDLQMNSLKQEDTAVYYCAVEYYGGDSYRYDYWGQGTQVTVSS | low polyreactivity
QVQLVESGGGLGQAGGSLRLSCAASGRIFSYNSMGWYRPATGKERELVAAISTSGGSTYYADSVKGRFTISRDYAKNTVYLQLISLKPEDTAVYYCNARAPFSSAQPTFLIDDGYHWGQGTQETVSS | low polyreactivity
QVQLVESGGGLGQAGGSLRLSCAASGRTFLFNAMGWYRQAPGKDRELVAAISSGGGSTYYADSVKGRFTISRDNAKNTDYLEMNSLKPEDTAVYFCAAYPYYYRYNYWGQGTQVTVSS | high polyreactivity
QVQLVESGGGLGQAGGSLRLSCAASGRTFPIYVMGWYRQAPGKERELVASISASGVRTYFADSVKGRFTISRDNAKNTVYLQMNSLKPEDTAVYYCATQVRRWYSARSPNVRFDYWGQGTQVTVSS | high polyreactivity
QVQLVESGGGLGQAGGSLRLSCAASGRTFTGYAMGWYRQAPGKERELVATISRSGGTTSYADSVKGRFTISRDNAKNTVYVQMNSLKPVDTAVYYCAADRRSRPYYYWGQGTQVTVSS | high polyreactivity
QVQLVESGGGLGQAGGSLRLSCAASGSIFYRYAMGWYRQAPGKERELVAAISSTGSTYYADSVKGRFTISRDHAKNTVYLEMNSLTPEDTAVYYGAARQGYRSYRRYDYWGQGTQVTVSS | high polyreactivity
QVQLVESGGGLGQAGGSLRLSCAASGSTFQTKAMGWYRQAPGKERELVAAINSGGGTNYADSVKGRFTISRDNAKNTVYLQMNSLKPEDTAVYYCATDVLPRKYVSDYPSGAYDYWGQGTQVTVSS | low polyreactivity

Sequence | polyreactivity (PSR sort gate)
QVQLVESGGGLGQAGGSLSLTCAASGSIFARNAMGWYRQAPGKERELVAAISTGGGSTYYADSVKGRFTISRDNAQNTVYLQMNSLKPEETEVYYCAAVGRSYYGHDYWGQGTQVTVSS | low polyreactivity
QVQLVESGGGLGQAGVSLRLSCAASGRIFYFNAMGWYRQAPGKEREMVAANSWSGGSTYYADSVKGRFTISRDNAKNTVYLQMNSLKPEDTAVYYCATDSYRQGDYYLGRVDYWGQGTQVTVSS | low polyreactivity
QVQLVESGGGLLHAGGSLRLSCAASGSTFILYTMGWYRQAPGKERELVAAISRSSGGTYYADSVKGRFTISRDTAKNTVYLQMNSLKTEDTAVYYCAARSRGAKYDYWGQGTQVTVSS | high polyreactivity
QVQLVESGGGLLQAGGSLRKSCAASGFTFDENSMGGYRQAPAINYSGASTYYAVSVKGRFTISRDNAKNTVYLQMNSLKPEDTAVYYCAAEVVAQMIYWGQGTQVTVSS | low polyreactivity
QVQLVESGGGLLQAGGSLRLSCAASGFIFRGYNMGWYRQAPGKERELVAAITTTSSTYYADSVKGRFTISRDNAKNTVYLQMNSLKPEDTAVYYCAALFYRYGYLYNYWGQGTQVTVSS | high polyreactivity
QVQLVESGGGLLQAGGSLRLSCAASGFNFGRYAMGWYRQAPGKERELVATISRSGGSTYYADSVKGRFTISRDNSKNTVFLQMNSLKPEDTAVYYCNALILPTKMGYWGQGTQVTVSS | low polyreactivity
QVQLVESGGGLLQAGGSLRLSCAASGFTIVCYAMGWYRQAPGKERELVAAISSGGSTYYADSVKGRFTISRDNAKNTVFLLMNSLKPEDTAVYYCAADREYYDEYAGYEYWGQGTQVTVSS | low polyreactivity
QVQLVESGGGLLQAGGSLRLSCAASGIIFHYNAMGWYRQAPWKQRELVAAITSTDNTNYADSVKGRFTISRDNAKNTVYLQMNSLIAEATAVYYCNASVGRDSAYDYWGQGTQVTVSS | low polyreactivity
QVQLVESGGGLLQAGGSLRLSCAASGIIYRPYAMGWYRQAPGKERELVAAITGSGVSTYYADSVKGRFTISRDNAKNTVYLQMNSLKPEDTAVYYCAKRYNRGYHRYDSWGQGTQVTVSS | low polyreactivity
QVQLVESGGGLLQAGGSLRLSCAASGRIFGQYAMGWYRQAPGKEREFVAGISTTGGSTYYADSVKGRFTISRDNAKNTVYLQMNSLKPEDTAVYYCAVRINWSRWYHYYTYNYWGQGTQVTGSS | high polyreactivity
QVQLVESGGGLLQAGGSLRLSCAASGRIFTLYDMGWYRQAPGKERELDAAISNSAGSTYYADSVKGRFTISLDNAKNTVYLQMNSLKTEDTAGYYCARSFSYWGYRSVYYWGQGTQVTVSS | high polyreactivity
QVQLVESGGGLLQAGGSLRLSCAASGRIFVHYVMGWYRQAPGKERELVAAINVSGGGTYYADSVKGRFTISRDNAKNTVYLQMNCLKPEDTAVFYCAAGTTQDWPFSSRSYFGHDSWGQGTQVTVSS | low polyreactivity
QVQLVESGGGLLQAGGSLRLSCAASGRTFYKNAMGWYRHAPRKERELVAAITSGGSTNYADSVKGRFTISRDNAKNSVYLQMNSLKSEDTAVSACAAQLFPYYRSRYSYINNYDYSGQGTQVTVSS | high polyreactivity
QVQLVESGGGLLQAGGSLRLSCAASGRTLVSYAMGWYRQAPGKERELVATISWSGGSTYYADSVKGRFTISRDTAKNTVYLQIYSLKPEDTAGYDCNRSLTGYDELGYPVPYTYDYWGQGTQVTVSS | low polyreactivity
QVQLVESGGGLLQAGGSLRLSCAASGSIFERNAIGWYRQAPGKERELVAVITRSGGSTYYADSVKGRFTISRDNAKNTVYLQMNSLKREDTAVYYCNARTAYFYGLDYWGQGTQVTVSS | high polyreactivity
QVQLVESGGGLLQAGGSLRLSCAASGSIFLYYAMGWYRQAPGKERELVAGISRGGGTTYYADSVKGRFTISRDNAKNTVYLQMNSLKPEDTAFYYCATVFWRSKHEYWGQGTQVTVSW | high polyreactivity
QVQLVESGGGLLQAGGSLRLSCAASGSISAQYALGWYRQAPGKERELVAAIDFSGGSTYYADSVKGRFTISRDNAKNTVYLQRNSLKPEDTAVYYCAARGDGDPSTDITLVEYDYWGQGTQVTVSS | low polyreactivity
QVQLVESGGGLLQAGGSLRLSCAASGSTFDTYDMGWYRQAPGKERELVAARNSGGDTNYADSVKGRFTISRDNAKNTVYLQMNSLKPEDTAVYYCAVVTYSYPNWYGYWGPGTQVTVSS | high polyreactivity
QVQLVESGGGLLQAGGSLRLSCAATGITFDRYAMGWYRQAPGKERELVAAITSGGRTYYADSVKGRFTISRDNAKNTVYLQMNSLKPEDTAVYYCNATRGQYVGRYYYWGQGTQVTVSS | high polyreactivity
QVQLVESGGGLLQAGGSLRLSCADSGYTFRAYALGWYRQAPGKERELVAAISRGGSTNYADSVKGRFTISRDNAKNTVYLQMYSLKPEDTAVYYCNTAYIVWYSSSYGAYYSGAFDYWGQGTLVTVSS | high polyreactivity
